Data: patent US20250250357A1 (NANJING ZAIMING PHARMACEUTICAL, published 2025)

T1: monkey MSLN full-length protein (NCBI: XP_028696439.1) expressed on HEK293T-monkey MSLN cells (monkey)
T1 construct: Whole encoded precursor
T1 chain: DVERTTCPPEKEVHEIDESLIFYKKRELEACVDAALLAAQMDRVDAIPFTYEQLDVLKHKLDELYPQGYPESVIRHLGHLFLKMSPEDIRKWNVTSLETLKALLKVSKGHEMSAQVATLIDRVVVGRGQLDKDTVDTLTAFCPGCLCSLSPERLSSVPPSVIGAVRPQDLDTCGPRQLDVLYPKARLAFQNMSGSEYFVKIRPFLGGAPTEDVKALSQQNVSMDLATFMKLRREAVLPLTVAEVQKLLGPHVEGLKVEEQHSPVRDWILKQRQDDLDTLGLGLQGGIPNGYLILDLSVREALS

B1: S009-F8-33.12 (antibody, human IgG1, kappa, V domains shown)
VH: EVQLQQSGAELVKPGASVKLSCTASAFNIKDYYMHWVKQRTEQGLEWIGRIDPEDGETKYAPKFQGKATITADTSSNTAYLQLSSLTSEDTAVYYCASGSGTGAMDYWGQGTSVTVSS
VL: DIVMTQSQKFMSTSVGDRVSITCKASQNVRTAVGWYQQKPGQSPKALIYLASNRHTGVPDRFTGSGSGTDFTLTISNVQSEDLADYFCLQHWNSPYTFGGGTKLVIKR
notes: Human-murine chimeric antibody, human IgG1 heavy and kappa light constant regions
B2: S009-F8-32.3 (antibody, human IgG1, kappa, V domains shown)
VH: QVQLKESGPGLVAPSQSLSITCTVSGFSLSSYAISWVRQPPGKGLEWLGVIWTGGGTNYNSALKSRLSISKDNSKSQVFLKMNSLQTDDTARFYCARNNYGRLDYAMDYWGQGTSVTVSS
VL: DVVMTQTPLSLPVSLGDQASISCRSSQSLVHGNGNTYLHWYLQKPGQSPKLLIYKVSNRFSGVPDRFSGSGSGTDFTLKISRVETEDLGVYFCSQSTHVPFTFGSGTKLEIKR
notes: as for B1
B3: S009-F8-31.22 (antibody, human IgG1, kappa, V domains shown)
VH: EVQLVESGGDLVKPGGSLKLSCAASGFTFSTYGMSWVRQTPDKRLEWVATISSGGSYTYYPDSLKGRFTISRDNAKNTLYLQMSSLKSEDTAMYYCARHEGYYYGKDYWGQGTTLTVSS
VL: DIVLTQSPATLSVTPGDSVSLSCRASHSISNNLHWYQQKSHESPRLLIKYASQSISGIPSKFSGSGSGTDFTLSINSVETEDFGMYFCQQTNSWPLTFGAGTKLELKR
notes: as for B1
B4: S009-F8-36.12 (antibody, human IgG1, kappa, V domains shown)
VH: EVQLQQSGPELVKPGASVKISCKASGYTFTDYYMNWVKQSHGKSLEWIGDINPNNGGTSYNQKFKGKATLTVDKSSSTAYMELRSLTSEDSAVYYCASWGYGSSSRGYFDYWGQGTTLTVSS
VL: QIVLSQSPAILSASPGEKVTMTCRASSSVSYMHWYQQKPGSSPKPWIYATSNLASGVPARFSGSGSGTSYSLTISRVEAEDAATYYCQQWSSNPWTFGGGTKLEIKR
notes: as for B1
B5: S009-F2.13.3 (antibody, human IgG1, kappa, V domains shown)
VH: QVQLQQSGAELMKPGASVKLSCKATGYTFTGYWIEWVKQRPGHGLEWIGEILPGSGSTNYNEKFKGKATFTADTSSNTAYMQLSSLTTEDSAIYYCARAGAWFAYWGQGTLVTVSA
VL: QIVLTQSPAIMSASLGERVTMTCTASSSVSSSYLHWYQQKPGSSPKLWTYSTSNLASGVPARFSGSGSGTSYSLTISSMEAEDAATYYCHQYHRSPWTFGGGTKLEIKR
notes: human-murine chimeric antibody, human IgG1/kappa constant regions
B6: S009-F2.47.1 (antibody, human IgG1, kappa, V domains shown)
VH: QVQLQQPGAELVKPGASVKLSCKASGYTFTSYWMHWVKQRPGQGLEWIGMIHPNSGSTNYNEKFKSKATLTVDKSSSTAYMQLSSLTSEDSAVYYCARPVVPYWYFDVWGTGTTVTVSS
VL: DIVMTQSQKFMSTTVGDRVSITCKASQNVGTAVAWYQQKPGQSPKLLIYSASNRYTGVPDRFTGSGSGTDFTLTISNMQSEDLADYFCQQSSSYPLTFGAGTKLELKR
notes: as for B5
B7: S009-F2.17.3 (antibody, human IgG1, kappa, V domains shown)
VH: QVQLQQPGTELVTPGASVKLSCKASGYSFTSYWMHWVKQRPGQGLEWIGNINPSNGDTFYNEKFKNKATLTVDKSSSTAYMQLSSLTSEDSAVYYCARGWLRDYWGQGTTLTVSS
VL: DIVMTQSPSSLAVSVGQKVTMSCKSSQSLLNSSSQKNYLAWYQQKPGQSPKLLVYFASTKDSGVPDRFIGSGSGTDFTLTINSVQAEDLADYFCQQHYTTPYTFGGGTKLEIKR
notes: as for B5
B8: S009-F2.23.12 (antibody, human IgG1, kappa, V domains shown)
VH: QVQLQQPGTELVKPGASVKLSCKASGYTFTNYWMHWVKQRPGQGLEWIGNINPSNGGPYYNERFRSKATLTVDKSSSTAYMQLSSLTSEDSAVYYCARPYYGSSYGYFDYWGQGTTLTVSS
VL: DIQMTQSPSSLSASLGGKVTITCKASQDINKYIAWYQHKPGKGPRLLIHYTSELQPGIPSRFSGNGSGRDYSFSISNLEPEDIATYYCLQYANPLRTFGGGTKLEIKR
notes: as for B5
B9: S009-F2.16.10 (antibody, human IgG1, kappa, V domains shown)
VH: QVQLQQPGAELIKPGASVKLSCKASGYTFTSYWMHWVKQRPGQGLEWIGIIHPNIGSTNYNERFKSKATLTVDKSSSTAYMQLSSLTSEDSAVYYCARRSSNYGDWYFDVWGTGTTVTVSS
VL: DIVMTQSHRFMSTSVGDRVSITCKASQDVGTSVAWYQQKPGQSPKLLIYWASTQHTGVPDRFTGSGSGTDFTLTINNVQSEDLLDYFCQQYSSYPLTFGAGTKLELKR
notes: as for B5
B10: S009-F2.21.4 (antibody, human IgG1, kappa, V domains shown)
VH: EVQLQQSGPELVKPGASVKIPCKASGYTFTDYNMDWVKQSHGKSLEWIGDINPNNGGSIYNQRFKGKATLTVDKSSSTAYMELRSLTSEDSAVYYCARRAYYSTGYFDVWGTGTTVTVSS
VL: QIVLTQSPALMSASPGEKVTITCSASSSISYMHWFQQKPGTSPKLWIYSTSTLASGVPARFSGSGSGTSYSLTISRMEAEDTATYYCQQRSSYPPTFGGGTKLEIKR
notes: as for B5
B11: S009-F2.39.3 (antibody, human IgG1, kappa, V domains shown)
VH: QVQLQQPGTELVKPGASVKLSCKASGYTFTNYWMHWVKQRPGQGLEWIGNINPSSGDSYYNERFMSKAKMTVDKSSSTAYMQLSSLTSEDSAVYYCARSGGLWLAFWGPGTLVTVSA
VL: DIVMTQSPSSLAMSVGQKVTMSCKSSQTLLNSVSQNNYLAWYQQKPGQSPTLLVYFASTRESGVPDRFIGGGSGTDFTLTISSVQAEDLADYFCQQHYRTPYTFGGGTNLEIKR
notes: as for B5

The binders below were run against T2, human MSLN-FL-his protein (human, UniProt Q13421 296-580) (assay: ELISA on coated antigen, antibody 0.0001 nM).
T2 construct: Made in HEK293E cells, purified on nickel column; it is put last here; also called human MSLN full-length protein; hMSLN-FL-his; not shown: His tag
T2 sequence (Q13421 other isoform, or with tags, fused parts or gaps): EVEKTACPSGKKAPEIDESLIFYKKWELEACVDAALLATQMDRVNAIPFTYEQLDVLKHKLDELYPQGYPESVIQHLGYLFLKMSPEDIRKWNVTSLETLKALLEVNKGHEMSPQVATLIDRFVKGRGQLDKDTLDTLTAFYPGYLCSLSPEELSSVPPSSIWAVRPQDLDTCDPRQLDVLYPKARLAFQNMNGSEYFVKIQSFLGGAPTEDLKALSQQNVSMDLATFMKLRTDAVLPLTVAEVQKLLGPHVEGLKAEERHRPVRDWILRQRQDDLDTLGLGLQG
B1 gave an OD450 of 0.05 OD.
Work on B2 yielded an OD450 of 0.07 OD.
B3 showed an OD450 of 0.08 OD.
Work on B4 yielded an OD450 of 0.05 OD.

These binders were tested against T2, human MSLN-FL-his protein (assay: ELISA on coated antigen, antibody 0.01 nM).
Procedure: (§1) The plate was sealed with a plastic film and incubated at 4° C. overnight. The next day, the plate was washed twice with PBST, and a blocking buffer [PBS+2% (w/w) BSA] was added for blocking at room temperature for 2 h. The blocking buffer was discarded, and a chimeric antibody or negative control antibody serially diluted from 100 nM was added at 50 μL/well. After incubation at 37° C. for 2 h, the plate was washed 3 times with PBST. […] After incubation at 37° C. for 2 h, the plate was washed 5 times with PBST. A TMB substrate was added at 50 μL/well for incubation at room temperature for 5-10 min, and then a stop solution (1.0 N HCl) was added at 50 μL/well.
In the case of B1, the OD450 is reported as 0.43 OD.
B2 gave an OD450 of 0.48 OD.
With B3 the OD450 was 0.85 OD.
In the case of B4, the OD450 is reported as 0.18 OD.

The binders below were run against T2, human MSLN-FL-his protein (assay: ELISA on coated antigen, no antibody (blank, column 'none')).
Procedure: as §1
Work on B1 yielded an OD450 of 0.06 OD.
Binder B2 has an OD450 of 0.04 OD.
Work on B3 yielded an OD450 of 0.08 OD.
Work on B4 yielded an OD450 of 0.04 OD.

Each binder was assayed against T3, human MSLN full-length protein (NCBI: AAH09272.1) expressed on HEK293T-hMSLN-B8 cells (human, UniProt Q13421 296-598) (assay: FACS on HEK293T-hMSLN-B8 cells).
T3 construct: Whole encoded precursor
T3 sequence (Q13421 other isoform, or with tags, fused parts or gaps limits assumed): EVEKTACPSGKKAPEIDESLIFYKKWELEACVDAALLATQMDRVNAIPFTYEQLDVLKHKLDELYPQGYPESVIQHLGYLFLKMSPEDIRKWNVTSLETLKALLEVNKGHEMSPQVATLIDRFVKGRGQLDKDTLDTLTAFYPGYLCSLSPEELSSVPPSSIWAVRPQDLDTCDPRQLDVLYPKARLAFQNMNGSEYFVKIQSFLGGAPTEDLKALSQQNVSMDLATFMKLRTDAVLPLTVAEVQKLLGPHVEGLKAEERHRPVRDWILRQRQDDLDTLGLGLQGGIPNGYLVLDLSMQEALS
Procedure: (§2) The desired cells were expanded to the logarithmic growth phase in a T-75 cell culture flask. […] After the cells from the previous step were subjected to cell counting, the cell pellet was resuspended to 2×10⁶ cells/mL in a blocking buffer of [PBS+2% (w/w) BSA] and added into a 96-well FACS reaction plate at 50 μL/well. A chimeric antibody (a sample to be tested) was added at 50 μL/well, and the plate was incubated on ice for 2 h. […] After the plate was centrifuged and washed 5 times with a PBST buffer, assay and analysis were performed by FACS (FACS CantoII, purchased from BD). Data analysis was performed by software (Flowjo) to obtain the mean fluorescence intensity (MFI) of the cells.
With B5 the EC50 was 1.15 nM and the “Maximum mean fluorescence intensity” value was 112000.
In the case of B6, the EC50 is reported as about 0.82 nM and the “Maximum mean fluorescence intensity” value is reported as 98200.
B7 was tested, and the EC50 was 3.95 nM and the “Maximum mean fluorescence intensity” value was 148000.
With B8 the EC50 was 2.39 nM and the “Maximum mean fluorescence intensity” value was 144000.
B9 was tested, and the EC50 was 0.88 nM and the “Maximum mean fluorescence intensity” value was 109000.
With B10 the EC50 was about 0.82 nM and the “Maximum mean fluorescence intensity” value was 91800.
For B11, the EC50 was 5.79 nM and the “Maximum mean fluorescence intensity” value was 138000.

Each binder was assayed against T2, human MSLN-FL-his protein (assay: ELISA on coated antigen, antibody 1 nM).
Procedure: as §1
Work on B1 yielded an OD450 of 2.57 OD.
Binder B2 has an OD450 of 2.64 OD.
With B3 the OD450 was 2.53 OD.
In the case of B4, the OD450 is reported as 2.21 OD.

Molecular target: T1, monkey MSLN full-length protein (NCBI: …)
Assay: FACS on HEK293T-monkey MSLN cells
Procedure: as §2
With B5 the “Maximum mean fluorescence intensity” value was 138 and the binding result was “no binding”.
B6 was tested, and the EC50 was 0.32 nM and the “Maximum mean fluorescence intensity” value was 17100.
With B7 the EC50 was 1.63 nM and the “Maximum mean fluorescence intensity” value was 24300.
With B8 the EC50 was about 0.83 nM and the “Maximum mean fluorescence intensity” value was 20400.
For B9, the EC50 was 0.3 nM and the “Maximum mean fluorescence intensity” value was 18400.
B10 was tested, and the EC50 was 0.44 nM and the “Maximum mean fluorescence intensity” value was 20100.
With B11 the EC50 was 4.18 nM and the “Maximum mean fluorescence intensity” value was 20800.

These binders were tested against T4, human MSLN-R3 protein (Met487-Ser606 of NCBI AAH09272.1) expressed on HEK293T-hMSLN-R3 cells (human, UniProt Q13421 487-606) (assay: FACS on HEK293T-hMSLN-R3 cells).
T4 construct: also called Region3
T4 sequence (Q13421 495-614): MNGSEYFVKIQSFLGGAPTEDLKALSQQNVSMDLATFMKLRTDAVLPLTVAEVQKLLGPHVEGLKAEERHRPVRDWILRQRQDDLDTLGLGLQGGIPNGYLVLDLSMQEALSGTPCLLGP
Procedure: as §2
With B5 the “Maximum mean fluorescence intensity” value was 112 and the binding result was “no binding”.
B7 was tested, and the EC50 was 1.48 nM and the “Maximum mean fluorescence intensity” value was 3840.
For B8, the EC50 was 0.5 nM and the “Maximum mean fluorescence intensity” value was 3880.
For B9, the “Maximum mean fluorescence intensity” value was 114 and the binding result was “no binding”.
B10 was tested, and the “Maximum mean fluorescence intensity” value was 348 and the binding result was “no binding”.
In the case of B11, the EC50 is reported as 4.19 nM and the “Maximum mean fluorescence intensity” value is reported as 3290.

These binders were tested against T2, human MSLN-FL-his protein (assay: ELISA on coated antigen, antibody 0.001 nM).
Procedure: as §1
In the case of B1, the OD450 is reported as 0.11 OD.
In the case of B2, the OD450 is reported as 0.11 OD.
Work on B3 yielded an OD450 of 0.2 OD.
B4 gave an OD450 of 0.06 OD.

Each binder was assayed against T5, human MSLN protein endogenously expressed on OVCAR3 tumor cells (human, UniProt Q13421 296-598) (assay: FACS on OVCAR3 cells).
T5 construct: whole, on cells; Endogenous target on OVCAR3 cells; kept apart from the recombinant full-length construct; also called mesothelin
T5 sequence (Q13421 other isoform, or with tags, fused parts or gaps): as the sequence (Q13421 other isoform, or with tags, fused parts or gaps limits assumed) above, with P14R counted along it
Procedure: as §2
With B5 the EC50 was 0.57 nM and the “Maximum mean fluorescence intensity” value was 14800.
With B6 the EC50 was 10.4 nM and the “Maximum mean fluorescence intensity” value was 15400.
For B7, the EC50 was 2.92 nM and the “Maximum mean fluorescence intensity” value was 17600.
With B8 the EC50 was 1 nM and the “Maximum mean fluorescence intensity” value was 14600.
B9 was tested, and the EC50 was 2.96 nM and the “Maximum mean fluorescence intensity” value was 14400.
In the case of B10, the “Maximum mean fluorescence intensity” value is reported as 5260.
B11 was tested, and the EC50 was 5.52 nM and the “Maximum mean fluorescence intensity” value was 14600.

What follows are binders tested against T2, human MSLN-FL-his protein (assay: ELISA on coated antigen, antibody 100 nM).
Procedure: as §1
B1 was tested, and the OD450 was 2.95 OD.
B2 was tested, and the OD450 was 3.03 OD.
Work on B3 yielded an OD450 of 2.66 OD.
B4 showed an OD450 of 2.71 OD.

The binders below were run against T2, human MSLN-FL-his protein (assay: ELISA on coated antigen, antibody 0.1 nM).
Procedure: as §1
B1 gave an OD450 of 1.61 OD.
With B2 the OD450 was 1.63 OD.
In the case of B3, the OD450 is reported as 2.19 OD.
Binder B4 has an OD450 of 0.73 OD.

What follows are binders tested against T2, human MSLN-FL-his protein (assay: ELISA on coated antigen, antibody 10 nM).
Procedure: as §1
B1 was tested, and the OD450 was 2.92 OD.
In the case of B2, the OD450 is reported as 2.85 OD.
B3 was tested, and the OD450 was 2.56 OD.
In the case of B4, the OD450 is reported as 2.69 OD.
